Assay [1] has as its target T1, Human Siglec-12 (human, UniProt Q96PQ1 19-595).
T1 construct: CHO HuSiglec-12 cell line; also called HuSiglec-12
The experiment in a line: flow cytometry on CHO HuSiglec-12 cell line. On the procedure:
(§1) Cells expressing Siglec-3, -5, -6, -8, -10, -11 and -12 were generated and a representative subset of the cross-reactive Siglec-7/9 antibodies were tested by flow cytometry for binding to the cells. Amino acid sequences and Genbank references for Siglec polypeptides used are shown below in Table 1.
(§2) Briefly, HuSiglec-expressing CHO cell lines (that expressed one of the Siglecs) were used.

The target in assay [2] is T2, Human Siglec-6 (human, UniProt O43699 27-453).
T2 construct: CHO HuSiglec-6 cell line; also called HuSiglec-6
T2 sequence (O43699 other isoform, or with tags, fused parts or gaps): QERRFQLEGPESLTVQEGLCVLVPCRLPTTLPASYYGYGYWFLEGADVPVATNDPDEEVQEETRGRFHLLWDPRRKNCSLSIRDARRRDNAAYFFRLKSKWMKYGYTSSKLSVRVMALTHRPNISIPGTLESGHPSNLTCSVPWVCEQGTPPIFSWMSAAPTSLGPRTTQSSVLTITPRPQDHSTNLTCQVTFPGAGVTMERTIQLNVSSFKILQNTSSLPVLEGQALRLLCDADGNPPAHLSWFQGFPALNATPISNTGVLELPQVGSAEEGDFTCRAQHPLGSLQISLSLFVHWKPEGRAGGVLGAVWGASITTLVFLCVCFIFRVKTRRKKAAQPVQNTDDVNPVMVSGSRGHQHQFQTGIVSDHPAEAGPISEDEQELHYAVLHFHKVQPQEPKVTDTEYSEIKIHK
The experiment in a line: flow cytometry on CHO HuSiglec-6 cell line. On the procedure: as §1, §2
Background: A flow cytometer gives signals particle by particle.

The target of assay [3] is T3, Human Siglec-5 (human, UniProt O15389 17-551).
T3 construct: CHO HuSiglec-5 cell line; also called HuSiglec-5
T3 sequence: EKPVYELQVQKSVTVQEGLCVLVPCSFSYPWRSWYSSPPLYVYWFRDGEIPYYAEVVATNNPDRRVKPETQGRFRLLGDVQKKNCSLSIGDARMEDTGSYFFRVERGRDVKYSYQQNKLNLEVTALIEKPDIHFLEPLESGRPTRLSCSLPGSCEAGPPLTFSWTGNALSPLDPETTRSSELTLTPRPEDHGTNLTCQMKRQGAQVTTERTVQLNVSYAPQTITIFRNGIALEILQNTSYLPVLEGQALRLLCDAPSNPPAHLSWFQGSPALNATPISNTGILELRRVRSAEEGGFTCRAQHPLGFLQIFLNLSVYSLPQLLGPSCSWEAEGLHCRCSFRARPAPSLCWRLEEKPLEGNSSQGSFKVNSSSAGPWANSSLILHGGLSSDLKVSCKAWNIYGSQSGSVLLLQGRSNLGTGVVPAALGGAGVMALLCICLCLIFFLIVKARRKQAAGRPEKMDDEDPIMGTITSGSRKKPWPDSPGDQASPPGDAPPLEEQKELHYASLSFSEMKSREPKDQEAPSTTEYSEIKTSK
The experiment in a line: flow cytometry on CHO HuSiglec-5 cell line. On the procedure:
as §1, §2

Assay [4] addresses T4, Human Siglec-7 (human, UniProt Q9Y286 19-467).
T4 construct: Expressed on CHO cells (huSiglec-7-expressing CHO cell line); also called huSiglec-7; CD328
The experiment in a line: flow cytometry on Siglec-7-expressing cell line.

For assay [5], the target named is T5, Human Siglec-8 (human, UniProt Q9NYZ4 17-499).
T5 construct: CHO HuSiglec-8 cell line; also called HuSiglec-8
T5 sequence (Q9NYZ4 17-499): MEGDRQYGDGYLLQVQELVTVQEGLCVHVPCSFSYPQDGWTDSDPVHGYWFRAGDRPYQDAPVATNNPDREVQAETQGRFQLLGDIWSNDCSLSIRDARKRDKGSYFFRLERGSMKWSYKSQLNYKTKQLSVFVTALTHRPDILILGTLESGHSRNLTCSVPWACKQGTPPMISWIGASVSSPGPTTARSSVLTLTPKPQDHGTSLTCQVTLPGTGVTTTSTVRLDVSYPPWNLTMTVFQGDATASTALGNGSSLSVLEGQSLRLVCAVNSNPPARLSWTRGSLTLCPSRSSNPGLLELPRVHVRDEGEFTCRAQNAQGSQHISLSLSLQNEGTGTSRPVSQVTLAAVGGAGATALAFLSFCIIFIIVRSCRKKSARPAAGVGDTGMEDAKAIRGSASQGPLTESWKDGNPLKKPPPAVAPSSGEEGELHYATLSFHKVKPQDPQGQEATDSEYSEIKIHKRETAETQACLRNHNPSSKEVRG
In words: flow cytometry on CHO HuSiglec-8 cell line. How it is done:
as §1, §2

Assay [6] addresses T6, Human Siglec-9 (human, UniProt Q9Y336 18-463).
T6 construct: Expressed on CHO cells (huSiglec-9-expressing CHO cell line); also called huSiglec-9; CD329
In words: flow cytometry on Siglec-9-expressing cell line.

Assay [7] addresses T7, Human Siglec-10 (human, UniProt Q96LC7 17-697).
T7 construct: CHO HuSiglec-10 cell line; also called HuSiglec-10
T7 sequence: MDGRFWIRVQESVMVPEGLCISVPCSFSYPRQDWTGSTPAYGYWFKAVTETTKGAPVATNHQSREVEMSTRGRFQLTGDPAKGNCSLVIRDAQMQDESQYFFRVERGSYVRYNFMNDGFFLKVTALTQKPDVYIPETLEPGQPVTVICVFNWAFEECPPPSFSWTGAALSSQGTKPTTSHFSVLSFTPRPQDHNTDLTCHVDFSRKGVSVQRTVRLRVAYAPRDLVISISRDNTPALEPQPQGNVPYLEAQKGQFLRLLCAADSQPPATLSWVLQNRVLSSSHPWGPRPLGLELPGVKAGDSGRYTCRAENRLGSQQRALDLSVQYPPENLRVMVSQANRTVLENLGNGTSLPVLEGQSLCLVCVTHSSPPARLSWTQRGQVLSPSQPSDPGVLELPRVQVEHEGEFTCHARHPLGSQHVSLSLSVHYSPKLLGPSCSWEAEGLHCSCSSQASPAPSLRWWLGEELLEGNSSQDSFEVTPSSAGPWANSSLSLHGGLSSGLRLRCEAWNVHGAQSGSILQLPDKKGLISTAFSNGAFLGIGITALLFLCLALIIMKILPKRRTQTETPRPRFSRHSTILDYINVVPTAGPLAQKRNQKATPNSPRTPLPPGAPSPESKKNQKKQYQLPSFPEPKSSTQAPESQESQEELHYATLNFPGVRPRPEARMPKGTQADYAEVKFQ
In words: flow cytometry on CHO HuSiglec-10 cell line. On the procedure: as §1, §2

For assay [8], the target named is T8, Human Siglec-3 (human, UniProt P20138 18-364).
T8 construct: CHO HuSiglec-3 cell line; also called HuSiglec-3; CD33
T8 sequence (P20138 18-364 R69G): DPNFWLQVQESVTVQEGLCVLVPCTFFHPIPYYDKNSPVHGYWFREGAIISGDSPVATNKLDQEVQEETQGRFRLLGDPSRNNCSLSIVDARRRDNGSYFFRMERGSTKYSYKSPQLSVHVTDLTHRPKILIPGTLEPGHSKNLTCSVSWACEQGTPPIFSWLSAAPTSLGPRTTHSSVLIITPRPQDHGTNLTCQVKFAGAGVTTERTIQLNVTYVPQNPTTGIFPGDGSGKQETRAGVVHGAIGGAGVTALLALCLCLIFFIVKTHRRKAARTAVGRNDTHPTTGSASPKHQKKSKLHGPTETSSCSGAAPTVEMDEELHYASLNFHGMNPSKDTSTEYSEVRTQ
In words: flow cytometry on CHO HuSiglec-3 cell line. How it is done:
as §1, §2

For assay [9], the target named is T9, Human Siglec-11 (human, UniProt Q96RL6 29-698).
T9 construct: CHO HuSiglec-11 cell line; also called HuSiglec-11
T9 sequence: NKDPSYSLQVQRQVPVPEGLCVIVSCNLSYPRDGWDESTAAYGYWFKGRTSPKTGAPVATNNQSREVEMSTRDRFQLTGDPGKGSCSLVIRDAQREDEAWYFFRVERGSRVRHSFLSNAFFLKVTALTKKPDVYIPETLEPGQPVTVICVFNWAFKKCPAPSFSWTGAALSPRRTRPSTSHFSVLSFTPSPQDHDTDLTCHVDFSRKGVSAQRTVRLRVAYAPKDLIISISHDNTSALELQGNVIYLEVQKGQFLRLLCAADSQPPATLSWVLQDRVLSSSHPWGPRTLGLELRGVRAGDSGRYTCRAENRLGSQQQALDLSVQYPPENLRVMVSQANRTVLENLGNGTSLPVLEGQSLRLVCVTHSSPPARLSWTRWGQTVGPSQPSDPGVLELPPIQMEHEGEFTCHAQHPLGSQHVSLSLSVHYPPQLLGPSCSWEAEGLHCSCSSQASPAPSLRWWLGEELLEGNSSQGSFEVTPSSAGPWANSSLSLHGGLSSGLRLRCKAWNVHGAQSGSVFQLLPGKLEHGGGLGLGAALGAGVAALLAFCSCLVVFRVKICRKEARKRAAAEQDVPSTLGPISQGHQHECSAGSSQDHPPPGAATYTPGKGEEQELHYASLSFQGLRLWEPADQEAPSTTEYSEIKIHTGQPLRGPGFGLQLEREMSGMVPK
In words: flow cytometry on CHO HuSiglec-11 cell line. How it is done:
as §1, §2

The source of these data is patent publication US20170306014A1 (INNATE PHARMA, published 2017).

T4 sequence (Q9Y286 19-467): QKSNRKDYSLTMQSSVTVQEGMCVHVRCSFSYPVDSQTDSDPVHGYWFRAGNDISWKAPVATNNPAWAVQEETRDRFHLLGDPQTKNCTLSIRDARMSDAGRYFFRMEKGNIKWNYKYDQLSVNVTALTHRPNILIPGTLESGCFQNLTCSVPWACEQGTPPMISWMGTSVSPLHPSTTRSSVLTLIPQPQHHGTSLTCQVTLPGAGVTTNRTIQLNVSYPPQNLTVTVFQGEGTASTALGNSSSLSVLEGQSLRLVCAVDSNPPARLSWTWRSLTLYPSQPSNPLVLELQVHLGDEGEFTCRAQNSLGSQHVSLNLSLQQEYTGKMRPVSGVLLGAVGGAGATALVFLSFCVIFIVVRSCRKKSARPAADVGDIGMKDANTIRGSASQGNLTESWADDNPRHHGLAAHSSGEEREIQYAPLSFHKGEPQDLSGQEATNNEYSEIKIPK
T1 sequence (Q96PQ1 19-595): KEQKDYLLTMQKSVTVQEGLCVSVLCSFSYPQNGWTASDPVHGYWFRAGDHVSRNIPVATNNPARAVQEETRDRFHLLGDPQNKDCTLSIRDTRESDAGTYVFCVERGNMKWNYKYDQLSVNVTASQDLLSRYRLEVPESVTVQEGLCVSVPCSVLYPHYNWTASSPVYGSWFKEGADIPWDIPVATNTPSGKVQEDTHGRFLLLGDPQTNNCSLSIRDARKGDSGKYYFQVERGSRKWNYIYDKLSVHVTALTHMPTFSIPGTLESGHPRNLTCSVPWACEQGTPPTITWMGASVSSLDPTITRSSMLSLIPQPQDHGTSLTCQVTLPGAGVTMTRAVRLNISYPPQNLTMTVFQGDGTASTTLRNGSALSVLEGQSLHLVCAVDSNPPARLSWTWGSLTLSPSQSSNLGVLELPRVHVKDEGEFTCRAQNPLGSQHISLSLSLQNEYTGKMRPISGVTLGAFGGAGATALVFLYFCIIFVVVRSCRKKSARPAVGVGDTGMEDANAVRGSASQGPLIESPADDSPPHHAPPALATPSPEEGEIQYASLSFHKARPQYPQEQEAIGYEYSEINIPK
T6 sequence (Q9Y336 18-463): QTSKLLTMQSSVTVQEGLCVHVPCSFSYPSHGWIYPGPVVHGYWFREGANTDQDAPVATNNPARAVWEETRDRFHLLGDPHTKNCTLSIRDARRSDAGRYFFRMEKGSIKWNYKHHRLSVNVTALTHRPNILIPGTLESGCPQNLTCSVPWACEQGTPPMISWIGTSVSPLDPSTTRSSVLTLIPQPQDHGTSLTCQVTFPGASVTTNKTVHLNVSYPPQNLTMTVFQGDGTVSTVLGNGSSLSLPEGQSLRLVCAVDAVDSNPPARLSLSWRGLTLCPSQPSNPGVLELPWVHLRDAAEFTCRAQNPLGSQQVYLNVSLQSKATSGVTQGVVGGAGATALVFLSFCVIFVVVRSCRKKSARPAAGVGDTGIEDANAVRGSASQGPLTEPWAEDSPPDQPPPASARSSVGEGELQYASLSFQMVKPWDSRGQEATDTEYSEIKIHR

B1: antibody 3A11 (antibody, V domains shown)
VH: EVQLQQSGTVLARPGASVKMSCKASGYSFTSYWMHWVKQRPGQGLEWIGAIYPGNSDTSYNQKFKDKAKLTAVTSASTAYMELSSLTNEDSAVYYCTTYYRYDGGFDYWGQGTTLTVSS
VL: DIQMTQSPKSMSMSVGERVTLSCKASETVGTYVSWYQQKPEQSPKLLIFGASNRNTGVPDRFTGSGSATDFTLTISSVQAEDLADYHCGQSYNYPYTFGGGTKLEIK
notes: Raised in Balb/c mice; hybridoma supernatants were screened with goat anti-mouse detection, and selected antibodies were also made as chimeric human IgG1 (also with N297Q); also called mAb 3A11
With B1, the binding result in assay [1] is recorded as “no binding”; in assay [2], “no binding”; in [3], “no binding”; in assay [4] it was “binds”; in assay [5] it was “no binding”; in [6] it was “binds”. Also, the binding result in assay [7], in assay [8] and in assay [9] was “no binding” each time.

B2: antibody 2B4 (antibody, V domains shown)
VH: EVQLQQSGTVLARPGASVKMSCKASGYSFTNYWMHWVKQRPGQGLEWIGAIYPGNSDTSYIQKFKGKAKLTAVTSASTAYMELSSLTNEDSAVYYCTTYYRYDGGFDYWGQGTTLTVSS
VL: DIVMTQSPKSMSMSVGERVTLSCKASENVDTYVSWYQQKPDQSPKLLLYGASNRNTGVPDRFTGSGSATDFTLTISNVQAEDLADYHCGQSYSQPYTFGGGTKLEIK
notes: Mouse-derived; also called mAb 2B4
Turning to B2, the binding result in assay [1] is listed as “no binding”; in assay [2], “no binding”; in assay [3] it was “no binding”; in [4], “binds”; in [5], “no binding”; in assay [6], “binds”. Besides, the binding result in assay [7], in assay [8] and in assay [9] was “no binding” in each case.

B3: antibody 1H9 (antibody, V domains shown)
VH: QVQLQQSGAELVRPGASVKLSCKAMGNTFTDYEMHWVKQTPVHGLEWIGAIHPGSGGTVYNQKFRGKAALTADKSSSTAYMELSSLTSEDSAVYYCTREVSGTVYWGQGTTLTVSS
VL: DIVMTQAAFSNPVTLGTSASISCRSSKSLLHSNGITYLFWYLQKPGQSPQLLIYQMSNLASGVPDRFSSSGSGTDFTLRISRVEAEDVGVYYCAQNLELPWTFGGGTKLEIK
notes: Mouse-derived; also called mAb 1H9
For B3, the binding result is on record as “no binding” in assay [1]; “no binding” in assay [2]; “no binding” in assay [3]; “binds” in assay [4]; “no binding” in [5]; “binds” in [6]. The binding result in assay [7], in assay [8] and in [9] was “no binding” each time.
